The results in this text go back to publication PMC12313893, “Queuosine is incorporated into precursor tRNA before splicing”.

Series [1] addresses T1, QTRT1 (catalytic subunit of TGT);QTRT2 (accessory subunit of TGT) (Mus musculus;Mus musculus, UniProt Q9JMA2;B8ZXI1 1-403;1-415, |). Nature of the series: MST; 9-deazaguanine; apparent Kd from peer review file; MST: 20 mM HEPES pH 7.5, 75 mM NaCl, 1 mM MgCl2, 0.025% Tween 20, 2 mM DTT, 50 nM Cy5-tRNA, 25 C, +/-100 uM 9dG; EMSA: same buffer without Tween, 100 uM 9dG, 200 nM tRNA, 4 C, 6% native gel. The note with it: protein: recombinant;recombinant; copies: 1;1; label: Cy5-cytosine incorporated during transcription (MST); tRNA cloverleaf with intron in anticodon loop.

The target in series [2] is T1, QTRT1 (catalytic subunit of TGT);QTRT2 …. Nature of the series: MST; no 9dG; value from peer review file (main text calls 2-1 slightly weaker); MST: 20 mM HEPES pH 7.5, 75 mM NaCl, 1 mM MgCl2, 0.025% Tween 20, 2 mM DTT, 50 nM Cy5-tRNA, 25 C, +/-100 uM 9dG; EMSA: same buffer without Tween, 100 uM 9dG, 200 nM tRNA, 4 C, 6% native gel. Particulars: protein: recombinant;recombinant; copies: 1;1; label: Cy5-cytosine incorporated during transcription (MST); tRNA cloverleaf with intron in anticodon loop.

For series [3] the target is unchanged. Nature of the series: MST; no 9dG; MST: 20 mM HEPES pH 7.5, 75 mM NaCl, 1 mM MgCl2, 0.025% Tween 20, 2 mM DTT, 50 nM Cy5-tRNA, 25 C, +/-100 uM 9dG; EMSA: same buffer without Tween, 100 uM 9dG, 200 nM tRNA, 4 C, 6% native gel. The note with it: protein: recombinant;recombinant, copies: 1;1, label: Cy5-cytosine incorporated during transcription (MST, EMSA).
The target is the same in series [4]. Kind of series: MST; 100 uM 9-deazaguanine; apparent Kd (covalent trapping; review file cites 1.2); MST: 20 mM HEPES pH 7.5, 75 mM NaCl, 1 mM MgCl2, 0.025% Tween 20, 2 mM DTT, 50 nM Cy5-tRNA, 25 C, +/-100 uM 9dG; EMSA: same buffer without Tween, 100 uM 9dG, 200 nM tRNA, 4 C, 6% native gel. The note with it: protein: recombinant;recombinant; copies: 1;1; label: Cy5-cytosine incorporated during transcription (MST, EMSA); tRNA cloverleaf.

Series [5] has the same target. Nature of the series: MST; 100 uM 9-deazaguanine; apparent Kd (covalent trapping); MST: 20 mM HEPES pH 7.5, 75 mM NaCl, 1 mM MgCl2, 0.025% Tween 20, 2 mM DTT, 50 nM Cy5-tRNA, 25 C, +/-100 uM 9dG; EMSA: same buffer without Tween, 100 uM 9dG, 200 nM tRNA, 4 C, 6% native gel. Particulars: protein: recombinant;recombinant; copies: 1;1; label: Cy5-cytosine incorporated during transcription (MST, EMSA); tRNA cloverleaf with intron in anticodon loop.

T1 sequence (Q9JMA2 whole entry, chain 1 of 2): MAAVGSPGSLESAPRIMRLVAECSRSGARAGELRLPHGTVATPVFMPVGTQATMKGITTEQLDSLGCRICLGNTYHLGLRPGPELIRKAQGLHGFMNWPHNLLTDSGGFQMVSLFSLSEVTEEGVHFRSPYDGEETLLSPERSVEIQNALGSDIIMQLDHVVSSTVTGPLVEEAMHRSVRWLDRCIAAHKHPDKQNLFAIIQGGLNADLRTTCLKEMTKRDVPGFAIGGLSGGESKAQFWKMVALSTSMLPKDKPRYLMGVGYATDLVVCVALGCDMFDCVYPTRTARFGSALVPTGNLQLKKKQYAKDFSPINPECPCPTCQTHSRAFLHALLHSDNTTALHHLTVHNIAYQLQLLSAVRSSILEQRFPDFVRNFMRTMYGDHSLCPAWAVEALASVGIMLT
T1 sequence (B8ZXI1 whole entry, chain 2 of 2): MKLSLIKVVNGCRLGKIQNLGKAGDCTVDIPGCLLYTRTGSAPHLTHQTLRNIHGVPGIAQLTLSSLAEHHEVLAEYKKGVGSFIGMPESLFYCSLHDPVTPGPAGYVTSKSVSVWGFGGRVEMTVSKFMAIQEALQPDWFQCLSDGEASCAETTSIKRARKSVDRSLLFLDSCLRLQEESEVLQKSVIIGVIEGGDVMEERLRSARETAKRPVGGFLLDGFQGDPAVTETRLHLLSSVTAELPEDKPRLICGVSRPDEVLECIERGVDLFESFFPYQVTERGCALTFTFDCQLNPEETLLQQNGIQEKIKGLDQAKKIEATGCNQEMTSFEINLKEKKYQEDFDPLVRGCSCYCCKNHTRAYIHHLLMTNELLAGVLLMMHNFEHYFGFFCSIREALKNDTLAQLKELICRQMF

B1: m_pre-tRNATyr 2-1 (intron-containing) (structured_RNA)
RNA: GGCCUUCGAUAGCUCAGUUGGUAGAGCGGAGGACUGUAGUCAGUACAAUAUGGUAAUCCUUAGGUCGCUGGUUCGAUUCCGGCUCGAAGGA
modifications: none (unmodified transcript)
B1: the Kd worked out at 1400 nM in series [1] and 2700 nM in series [2].

B2: m_tRNATyr (mature, GUA) (structured_RNA)
RNA: GGCCUUCGAUAGCUCAGUUGGUAGAGCGGAGGACUGUAGAUCCUUAGGUCGCUGGUUCGAAUCCGGCUCGAAGGA
modifications: none (unmodified transcript)
Turning to B2, the Kd in series [3] (tRNA cloverleaf) was determined as 2400 ± 700 nM; in series [4], 1100 ± 300 nM.

B3: m_pre-tRNATyr 1-4 (intron-containing) (structured_RNA)
RNA: GGCCUUCGAUAGCUCAGUUGGUAGAGCGGAGGACUGUAGGUCAUUGUUCUAGAAAUCCUUAGGUCGCUGGUUCGAAUCCGGCUCGAAGGA
modifications: none (unmodified transcript)
B3: the results for the Kd in series [3] (tRNA cloverleaf with intron in anticodon loop) and in series [5] were 6000 ± 700 nM and 2400 ± 200 nM, respectively.
